The record followed here is paper doi:10.1101/2025.05.06.652354.

Assay [1] addresses Clostridioides difficile transferase B component, CDTb(45-876), activated with trypsin (Clostridioides difficile) (UniProt O32739). Briefly: SDS-PAGE of SDS-resistant oligomers.
Assay [2] has the same target. Briefly: SEC. For orientation: In gel filtration, larger molecules generally elute earlier.

The term stoichiometry N denotes a count of units in the complex or per binding partner.

For the substance “Clostridioides difficile transferase B component, CDTb(45-876), activated with trypsin (from UniProt O32739 45-876) (natural protein)”, the fold oligomer formed with 2.5 M ethanol against water in assay [1] came out at 7.5 fold. The substance further registered a stoichiometry N in assay [2] of 7.
